Data taken from patent US20150359847A1, “METHOD AND COMPOSITION FOR CONFERRING NEUROPROTECTION” (BLOOD SYSTEMS RESEARCH INSTITUTE, priority 2014, published 2015).

Tests used:
[1] = tested on: mouse model of controlled cortical impact (CCI); test: Morris Water Maze in CCI TBI mice; format: in vivo
Text: The mouse controlled cortical impact (CCI) injury model was used as previously described. In brief, mice were anesthetized with 5% isoflurane and 1:1 O2:N2 mixture. Animals were mounted on a stereotaxic frame and were secured by ear bars and an incisor bar. Anesthesia was maintained with 2.0% isoflurane and 1:1 O2:N2 mixture. A 5-mm-diameter craniotomy was made midway between bregma and lambda on the right side, with the medial edge of the craniotomy 1 mm lateral to midline. Injury was produced using a magnetic impactor mounted at an angle of 110° from the vertical plane. A single impact at a velocity of 4+/−0.2 m/s was used inflict a moderate to severe injury (1.2-1.3 mm impact depth). After injury, the incision was closed. Sham animals underwent identical surgeries except for impact injury. Core body temperature was monitored using a rectal thermometer and maintained at 36.8° C.-37.2° C. with a heating pad throughout the procedure. For treatments, TIMP3 (60.0 μg/kg) or vehicle control (PBS) administration was performed at 2, 24, and 48 hrs after injury via tail vein injections in a total volume of 125 μl. Animal research was performed with approval of the Institutional Animal Care and Use Committee at ISIS Services LLC (San Carlos, Calif., USA). Mice received humane care according to the criteria outlined by the National Research Council's Institute of Laboratory Animal Resources in the “Guide for the Care and Use of Laboratory Animals”. Neurocognitive testing conducted at UT Houston was in compliance with University of Texas Houston Institutional Animal Care and Use Committee.
A modified Morris water maze task was used to assess long-term memory. Mice were trained to find the location of a hidden platform in one day. This was followed by probe at 30 mins following the last trial and another probe 24 hrs later. Mice were given 10 training trials with an inter-trial interval of 15 mins. Each trial was initiated by placing the animal into the water maze at one of four randomly chosen starting positions. The animal was allowed to search for the hidden platform for a period of 1 min, and the time to find the platform recorded. […] At thirty minutes and twenty-four hours following the final training trial, animals were tested in a probe trial in which the platform was removed from the tank and allowed to search for a period of 1 min. Movement within the maze was monitored using a video camera linked to […] software (Ethovision™, Noldus Information Technology, Leesbury, Va.). Measures of memory, including latency to first platform crossing, and number of crossings were recorded.

[2] = tested on: hippocampal neurons; test: Neurite chamber assay (AXIS axon isolation device); format: cell-based, mouse; settings: 7 days treatment with TIMP3
Description: For AXIS™ Axon Isolation devices, chambers were first sterilized from one side of the groves to the other under flow gradient with 70% ethanol to avoid trapping air in the groves. Afterwards the slides were completely immersed in 70% ethanol for 5 mins. Upon removing the slide from the ethanol bath, chambers were washed twice with PBS under a flow gradient to flush the chambers, the procedure was then repeated with Poly-D-Lysine. Chambers were then incubated with Poly-D-Lysine overnight at 4° C. Prior to plating cells, chambers were flushed with ‘plating media’ (see tissue culture section). Simultaneous plating of the single cell suspension in both wells on side of the groves enabled equilibrium to be obtained and a sufficient number of cell remained in the chamber adjacent to the groves. Hippocampi from 2 pups were used per chamber. Cells were allowed to attach for 4 hrs before excess cells in the wells were detached using the rubber tip from a sterile 1 ml syringe, plating media removed and ‘maintenance media’ with treatments were added. Flow gradients were maintained throughout the culture steps and media exchanges were performed with this in mind.

[3] = long-term probe, TBI+TIMP3 vs TBI alone

B1: TIMP3: Recombinant tissue inhibitor of matrix metalloproteinase-3, a soluble protein released by MSCs, obtained from Amgen Inc. (protein)
chain: CTCSPSHPQDAFCNSDIVIRAKVVGKKLVKEGPFGTLVYTIKQMKMYRGFTKMPHVQYIHTEASESLCGLKLEVNKYQYLLTGRVYDGKMYTGLCNFVERWDQLTLSQRKGLNYRYHLGCNCKIKSCYYLPCFVTSKNECLWTDMLSNFGYPGYQSKHYACIRQKGGYCSWYRGWAPPDKSIINATDP
B1 was tested, and the “ability to learn the platform location during training” value ([1]; TBI+TIMP3 vs TBI alone) was “did not significantly differ”, the “total number of correct platform crossings (Morris Water Maze)” value ([1]; TIMP3 60 μg/kg IV x3, long-term memory probe 24 hrs after training, days 8-9) was 1.9±0.4 and the “latency to first platform crossing” value [1, 3] was “did not significantly differ”. For the same molecule, the “time in the area around the platform (concentric rings)” value [1, 3] was “spent more time in the area around the platform” and the “neurite outgrowth in neurite chamber” value [2] was “increased neurite outgrowth”.
